B1: native carnitine/acylcarnitine carrier purified from isolated rat liver mitochondria (natural protein, UniProt P97521 1-301, looked up)
chain: MAEEPKPISPLKNLLAGGFGGVCLVFVGHPLDTVKVRLQTQPPSLPGQPPMYSGTIDCFRKTLFREGITGLYRGMAAPIIGVTPMFAVCFFGFGLGKRLQQKSPEDELTYPQLFTAGMLSGVFTTGIMTPGERIKCLLQIQASSGKNKYSGTLDCAKKLYQEFGIRGFYKGTALTLMRDVPASGMYFMTYEWLKNLFTPQGKSVHDLSVPRVLVAGGFRGIFNWVVAIPPDVLKSRFQTAPPGKYPNGFRDVLRELIREEGVTSLYKGFNAVMIRAFPANAACFLGFEIPMKILNWIAPNL
notes: mitochondrial carnitine/acylcarnitine carrier (CAC, SLC25A20), rat, native protein from liver mitochondria; single band of apparent molecular weight 32,500 Da on SDS gel; Integral membrane protein; also called CAC; SLC25A20; source: purified from rat liver mitoplasts (3% Triton X-100 extract, hydroxyapatite, celite with cardiolipin); used in Triton X-100 or reconstituted in liposomes
B2: recombinant carnitine/acylcarnitine carrier wild type (natural protein, UniProt P97521 1-301, looked up)
chain: B1 chain
notes: also called CAC WT; WT; source: overexpressed from cDNA cloned in pMW7, purified, reconstituted in liposomes

Tests used:
[1] = biological target: the molecule itself; test: native gel or EMSA; Sarkosyl/PAGE: 14% polyacrylamide, 0.05% w/v Sarkosyl in gel, samples and running buffer, 100 Volt, 4 °C; purified CAC in Triton X-100 or extracted from proteoliposomes with 0.05% Sarkosyl; silver nitrate staining; 59 kDa band excised and run on SDS-PAGE with immunoblot
[2] = biological target: the molecule itself; test: cross-linking; purified CAC reconstituted in liposomes (0.5 µg protein), 0.5 mM Sulfo-MBS (spacer arm 9.9 Å), 30 min at room temperature, quenched with 10 mM DTE and 20 mM Tris-HCl pH 8.0; SDS-PAGE and immunoblot
[3] = biological target: the molecule itself; test: cross-linking; recombinant CAC WT alone (100) or mixed with C-lessV (75/25, 50/50) reconstituted in liposomes, incubated with Sulfo-SMPB; SDS-PAGE and immunoblot

Protein | stoichiometry N [1] | stoichiometry N [2] | stoichiometry N [3]
B1 | ~2 | 2 | 
B2 |  |  | 2
